Reference: US6756229B1, “Human cell line showing stable expression of cytochromes P450” (Takeda Chemical Industries, Ltd., priority 1999, dated 2004)

How the values were obtained:
[1] = substrate: CC(=O)O[C@H]1C(=O)[C@@]2(C)[C@H]([C@H](OC(=O)c3ccccc3)[C@]3(O)C[C@H](OC(=O)[C@H](O)[C@@H](NC(=O)c4ccccc4)c4ccccc4)C(C)=C1C3(C)C)[C@]1(OC(C)=O)CO[C@@H]1C[C@@H]2O
[2] = substrate: O=[N+]([O-])c1ccc(O)cc1; assay: Kinetic analysis, p-nitrophenol hydroxylase activity in Hepc/2E1.3-8; format: cell-based, human; conditions: other: Hepc/2E1.3-8, Lineweaver-Burk plot, 37.0 °C
From the text: 4-Nitrocatechol purchased from Wako Junyaku K. K. was used as the standard substance.

[3] = substrate: CCOc1ccc2nc3ccc(=O)cc-3oc2c1; assay: Kinetic analysis, 7-ethoxyresorufin O-deethylase activity in Hepc/1A1.4; format: cell-based, human; conditions: other: Hepc/1A1.4, Lineweaver-Burk plot, 37.0 °C
Experimental: (§1) After 1800 μl of methanol (Wako Junyaku K. K) was added to 300 μl of the reaction solution and insoluble material was removed by centrifugation, fluorescent intensity was measured at an excited wavelength of 550 nm and a fluorescence wavelength of 586 nm using a spectrofluorometer to quantify the resorufin formed. The product purchased from Molecular Probes was used as the standard substance for resorufin (Molecular Probes).

[4] = substrate: CCOc1ccc2nc3ccc(=O)cc-3oc2c1; assay: Kinetic analysis, 7-ethoxyresorufin O-deethylase activity in Hepc/1A2.9; format: cell-based, human; conditions: other: Hepc/1A2.9, Lineweaver-Burk plot, 37.0 °C
Experimental: as §1

B1: CYP2C8 (Homo sapiens) (protein)
chain: MEPFVVLVLCLSFMLLFSLWRQSCRRRKLPPGPTPLPIIGNMLQIDVKDICKSFTNFSKVYGPVFTVYFGMNPIVVFHGYEAVKEALIDNGEEFSGRGNSPISQRITKGLGIISSNGKRWKEIRRFSLTTLRNFGMGKRSIEDRVQEEAHCLVEELRKTKASPCDPTFILGCAPCNVICSVVFQKRFDYKDQNFLTLMKRFNENFRILNSPWIQVCNNFPLLIDCFPGTHNKVLKNVALTRSYIREKVKEHQASLDVNNPRDFIDCFLIKMEQEKDNQKSEFNIENLVGTVADLFVAGTETTSTTLRYGLLLLLKHPEVTAKVQEEIDHVIGRHRSPCMQDRSHMPYTDAVVHEIQRYSDLVPTGVPHAVTTDTKFRNYLIPKGTTIMALLTSVLHDDKEFPNPNIFDPGHFLDKNGNFKKSDYFMPFSAGKRICAGEGLARMELFLFLTTILQNFNLKSVDDLKNLNTTAVTKGIVSLPPSYQICFIPV
- Km [1]: 7.4 µM
- Vmax [1]: 9e-09 µmol/min/mg

B2: CYP2E1 (Homo sapiens) (protein)
chain: MSALGVTVALLVWAAFLLLVSMWRQVHSSWNLPPGPFPLPIIGNLFQLELKNIPKSFTRLAQRFGPVFTLYVGSQRMVVMHGYKAVKEALLDYKDEFSGRGDLPAFHAHRDRGIIFNNGPTWKDIRRFSLTTLRNYGMGKQGNESRIQREAHFLLEALRKTQGQPFDPTFLIGCAPCNVIADILFRKHFDYNDEKFLRLMYLFNENFHLLSTPWLQLYNNFPSFLHYLPGSHRKVIKNVAEVKEYVSERVKEHHQSLDPNCPRDLTDCLLVEMEKEKHSAERLYTMDGITVTVADLFFAGTETTSTTLRYGLLILMKYPEIEEKLHEEIDRVIGPSRIPAIKDRQEMPYMDAVVHEIQRFITLVPSNLPHEATRDTIFRGYLIPKGTVVVPTLDSVLYDNQEFPDPEKFKPEHFLNENGKFKYSDYFKPFSTGKRVCAGEGLARMELFLLLCAILQHFNLKPLVDPKDIDLSPIHIGFGCIPPRYKLCVIPRS
notes: expressed in transfected cells
- Km [2]: 88 µM
- Vmax [2]: 0.00012 µmol/min/mg

B3: CYP1A1 (Homo sapiens) (protein)
chain: MLFPISMSATEFLLASVIFCLVFWVIRASRPQVPKGLKNPPGPWGWPLIGHMLTLGKNPHLALSRMSQQYGDVLQIRIGSTPVVVLSGLDTIRQALVRQGDDFKGRPDLYTFTLISNGQSMSFSPDSGPVWAARRRLAQNGLKSFSIASDPASSTSCYLEEHVSKEAEVLISTLQELMAGPGHFNPYRYVVVSVTNVICAICFGRRYDHNHQELLSLVNLNNNFGEVVGSGNPADFIPILRYLPNPSLNAFKDLNEKFYSFMQKMVKEHYKTFEKGHIRDITDSLIEHCQEKQLDENANVQLSDEKIINIVLDLFGAGFDTVTTAISWSLMYLVMNPRVQRKIQEELDTVIGRSRRPRLSDRSHLPYMEAFILETFRHSSFVPFTIPHSTTRDTSLKGFYIPKGRCVFVNQWQINHDQKLWVNPSEFLPERFLTPDGAIDKVLSEKVIIFGMGKRKCIGETIARWEVFLFLAILLQRVEFSVPLGVKVDMTPIYGLTMKHACCEHFQMQLRS
notes: as for B2
- Km [3]: 0.25 µM
- Vmax [3]: 5.6e-05 µmol/min/mg

B4: CYP1A2 (Homo sapiens) (protein)
chain: MALSQSVPFSATELLLASAIFCLVFWVLKGLRPRVPKGLKSPPEPWGWPLLGHVLTLGKNPHLALSRMSQRYGDVLQIRIGSTPVLVLSRLDTIRQALVRQGDDFKGRPDLYTSTLITDGQSLTFSTDSGPVWAARRRLAQNALNTFSIASDPASSSSCYLEEHVSKEAKALISRLQELMAGPGHFDPYNQVVVSVANVIGAMCFGQHFPESSDEMLSLVKNTHEFVETASSGNPLDFFPILRYLPNPALQRFKAFNQRFLWFLQKTVQEHYQDFDKNSVRDITGALFKHSKKGPRASGNLIPQEKIVNLVNDIFGAGFDTVTTAISWSLMYLVTKPEIQRKIQKELDTVIGRERRPRLSDRPQLPYLEAFILETFRHSSFLPFTIPHSTTRDTTLNGFYIPKKCCVFVNQWQVNHDPELWEDPSEFRPERFLTADGTAINKPLSEKMMLFGMGKRRCIGEVLAKWEIFLFLAILLQQLEFSVPPGVKVDLTPIYGLTMKHARCEHVQARLRFSIN
notes: as for B2
- Km [4]: 0.72 µM
- Vmax [4]: 1.6e-06 µmol/min/mg
